The values that follow come from patent US20080248458A1 (UNIVERSITY OF NORTH CAROLINA AT CHAPEL HILL, published 2008).

T1: FLAG®-Ring1B (mouse, UniProt Q9CQJ4 1-336)
T1 construct: also called F-Ring1B
T1 sequence: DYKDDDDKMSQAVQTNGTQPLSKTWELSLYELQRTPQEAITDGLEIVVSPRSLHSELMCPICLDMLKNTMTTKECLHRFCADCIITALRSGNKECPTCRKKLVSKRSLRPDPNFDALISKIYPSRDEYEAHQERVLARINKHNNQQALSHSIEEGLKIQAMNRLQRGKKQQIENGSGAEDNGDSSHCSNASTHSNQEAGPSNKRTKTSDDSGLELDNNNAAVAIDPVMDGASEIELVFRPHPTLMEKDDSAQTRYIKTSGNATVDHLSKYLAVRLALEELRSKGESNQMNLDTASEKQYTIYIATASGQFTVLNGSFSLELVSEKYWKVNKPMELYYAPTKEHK

T2: Ring1A (mouse, UniProt O35730 1-406)
T2 construct: mature; Untagged protein: 35S-labelled in vitro translation product in the GST pull-down; baculovirus-expressed in Sf9 cells in the co-purifications; also called Ring1/Ring1A
T2 sequence (looked up): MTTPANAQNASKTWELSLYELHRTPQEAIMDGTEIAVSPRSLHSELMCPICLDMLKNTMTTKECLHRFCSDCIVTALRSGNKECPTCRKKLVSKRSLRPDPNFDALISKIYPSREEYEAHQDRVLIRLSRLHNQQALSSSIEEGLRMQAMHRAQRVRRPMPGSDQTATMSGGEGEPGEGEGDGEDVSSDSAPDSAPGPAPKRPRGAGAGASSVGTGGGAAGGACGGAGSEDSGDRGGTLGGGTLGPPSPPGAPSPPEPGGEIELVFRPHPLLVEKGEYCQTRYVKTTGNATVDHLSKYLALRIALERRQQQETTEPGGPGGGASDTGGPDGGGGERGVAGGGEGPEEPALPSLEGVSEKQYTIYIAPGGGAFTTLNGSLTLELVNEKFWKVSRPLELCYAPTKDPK

T3: GST-Ring1A (mouse, UniProt O35730 1-406)
T3 construct: mature; Full-length cDNA cloned into pGEX-KG; also called GST fusion of Ring1A; not shown: glutathione S-transferase (GST) encoded by the pGEX-KG vector
T3 sequence (looked up): T2 sequence (looked up)

T4: Bmi-1, P25916
T4 chain: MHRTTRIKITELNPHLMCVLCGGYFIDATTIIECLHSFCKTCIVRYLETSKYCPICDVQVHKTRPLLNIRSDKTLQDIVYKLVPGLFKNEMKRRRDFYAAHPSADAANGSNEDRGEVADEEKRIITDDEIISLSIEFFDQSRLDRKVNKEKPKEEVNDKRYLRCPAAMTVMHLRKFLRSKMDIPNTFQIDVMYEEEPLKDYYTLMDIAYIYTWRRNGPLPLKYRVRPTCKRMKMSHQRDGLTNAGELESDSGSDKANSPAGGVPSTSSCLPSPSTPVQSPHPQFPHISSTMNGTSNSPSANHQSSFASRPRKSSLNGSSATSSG

B1: Bmi-1 (other, mouse, UniProt P25916 1-324, looked up)
chain: T4 chain
notes: mature; Untagged protein: 35S-labelled in vitro translation product in the GST pull-down; baculovirus-expressed in Sf9 cells in the two-component complex with FLAG-Ring1B
B2: GST-Ring1B (other, mouse, UniProt Q9CQJ4 2-336, looked up)
chain: SQAVQTNGTQPLSKTWELSLYELQRTPQEAITDGLEIVVSPRSLHSELMCPICLDMLKNTMTTKECLHRFCADCIITALRSGNKECPTCRKKLVSKRSLRPDPNFDALISKIYPSRDEYEAHQERVLARINKHNNQQALSHSIEEGLKIQAMNRLQRGKKQQIENGSGAEDNGDSSHCSNASTHSNQEAGPSNKRTKTSDDSGLELDNNNAAVAIDPVMDGASEIELVFRPHPTLMEKDDSAQTRYIKTSGNATVDHLSKYLAVRLALEELRSKGESNQMNLDTASEKQYTIYIATASGQFTVLNGSFSLELVSEKYWKVNKPMELYYAPTKEHK
notes: mature; Full-length cDNA cloned into pGEX-KG; also called GST fusion of Ring1B; not shown: glutathione S-transferase (GST) encoded by the pGEX-KG vector
B3: Ring1B (enzyme, mouse, UniProt Q9CQJ4 2-336, looked up)
chain: B2 chain
notes: mature; Untagged protein: 35S-labelled in vitro translation product (pCITE, full-length cDNA) in the GST pull-down; baculovirus-expressed in Sf9 cells in the co-purifications; also called Ring2; Ring2/Ring1B
B4: FLAG®-Ring1B (protein)
chain: T1 sequence

Series [1] concerns the target T1, FLAG®-Ring1B. Put plainly: co-expression in Sf9 cells, anti-FLAG purification, silver stain (FIG. 7A). On the procedure: To purify the recombinant PRC1 complex and sub-complexes, different baculoviruses were used to co-infect SF9 cells. After two days of infection, cells were collected and resuspended in F lysis buffer [20 mM Tris (pH 7.9), 500 mM NaCl, 4 mM MgCl₂, 0.4 mM EDTA, 2 mM DTT, 20% glycerol, 0.1% NP40] with proteinase inhibitors. Then cells were homogenized with pestle A three times (10 strokes each) in a period of 30 minutes. The supernatant was recovered by centrifuging at 11,000 rpm for 10 minutes. The supernatant was adjusted to 300 mM NaCl by adding Dilution buffer [20 mM Tris (pH 7.9), 10% glycerol], then incubated with the M2 α-FLAG® agarose (Sigma, St. Louis, Mo.) equilibrated with F lysis buffer for 4 hours at 4° C. After washing with F washing buffer [20 mM Tris (pH 7.9), 150 mM NaCl, 2 mM MgCl₂, 0.2 mM EDTA, 1 mM DTT, 15% glycerol, 0.01% NP40] until no protein came out, bound proteins were eluted with 0.2 mg/ml FLAG® peptide ([…]; SEQ ID NO:5) in F washing buffer for 20 minutes each time at room temperature. The eluted complexes were further purified through a gel-filtration SEPHADEX 200 or SUPEROSE 6 column. […]

Series [2] concerns the target B3. Put plainly: purification of two-component complexes from infected insect cells (FIG. 13D).
Series [3] concerns the target T2, Ring1A. The series can be described thus: GST pull-down with 35S-labelled in vitro translated protein (FIG. 5A). On the procedure:
(§1) Full-length cDNAs for Ring1B, Ring1A, Bmi-1, Pc3 and Ph2 were inserted into pCITE vector for in vitro translation using the rabbit reticulocyte lysate kit according to the manufacturer's instructions (PROMEGA, Madison, Wis.). Full-length cDNAs for Ring1B, Ring1A, Bmi-1, Pc3 and Ph2 were also cloned into pGEX-KG vector for the production of GST-fusion proteins. About 3 μg of GST or GST fusion proteins were bound to 10 μL of glutathione-immobilized agarose beads (Sigma) and incubated with in vitro-translated products in 500 μL buffer A (50 mM Tris-HCl [pH 7.9], 0.5 mM EDTA, 1 mM dithiothreitol, 0.2 mM phenylmethylsulfonyl fluoride, 10% glycerol) containing 150 mM KCl and 0.05% NP-40. After incubation at 4° C. for 2 hours, the beads were washed three times with buffer A containing 300 mM KCl and 0.05% NP-40 and then washed once in buffer A containing 50 mM KCl before being subjected to SDS-PAGE and autoradiogram.
(§2) To address the effect of other subunits on Ring1B enzymatic activity, an attempt was made to reconstitute Ring1B-containing subcomplexes. Toward this end, the precise spatial relationship among components of the complex were first defined using GST full-down assays. Individual components were expressed as GST fusion proteins and equal amounts of the fusion proteins, as well as GST alone (FIG. 5A, last panel), were immobilized onto beads and incubated with ³⁵S-labeled proteins. […]

Series [4] concerns the target T3, GST-Ring1A. The series is described as above. Here is the method:
as §1, §2

The target in series [5] is T4, Bmi-1, P25916.

On to B1, for which the binding result in series [1] and in series [2] was “binds” in each case.
Consider B2, for which the binding result in series [3] is “no binding”.
As to B3, the binding result in series [4] was “no binding”.
As for B4, the “E3 ligase activity (ubiquitylation of nucleosomal substrates)” value in series [5] was “stimulated its E3 ligase activity”.
